What was measured:
PARP2 = PARP2 (human, UniProt Q9UGN5 1-583); assay: photo-cross-linking; no NAD+; 200 nM PARP2, 100 nM DNA; EMSA: 50 mM Tris-HCl pH 8.0, 20 mM NaCl, 0.25 mM EDTA, 5% glycerol, 0.025% NP-40, 37 °C 20 min; 8% PAAG, 0.5x TBE, 10 °C; details: protein: recombinant; label: 5'-32P; 5' overhang 4 nt on strand 1; other end blunt
PARP1 [1] = target: T1, PARP1 (human, UniProt P09874 1-1014); assay: photo-cross-linking; no NAD+; 200 nM PARP1, 100 nM DNA; EMSA: 50 mM Tris-HCl pH 8.0, 20 mM NaCl, 0.25 mM EDTA, 5% glycerol, 0.025% NP-40, 37 °C 20 min; 8% PAAG, 0.5x TBE, 10 °C; details: protein: recombinant; label: 5'-32P; 5' overhang 4 nt on strand 1; other end blunt
T1 sequence (P09874 whole entry): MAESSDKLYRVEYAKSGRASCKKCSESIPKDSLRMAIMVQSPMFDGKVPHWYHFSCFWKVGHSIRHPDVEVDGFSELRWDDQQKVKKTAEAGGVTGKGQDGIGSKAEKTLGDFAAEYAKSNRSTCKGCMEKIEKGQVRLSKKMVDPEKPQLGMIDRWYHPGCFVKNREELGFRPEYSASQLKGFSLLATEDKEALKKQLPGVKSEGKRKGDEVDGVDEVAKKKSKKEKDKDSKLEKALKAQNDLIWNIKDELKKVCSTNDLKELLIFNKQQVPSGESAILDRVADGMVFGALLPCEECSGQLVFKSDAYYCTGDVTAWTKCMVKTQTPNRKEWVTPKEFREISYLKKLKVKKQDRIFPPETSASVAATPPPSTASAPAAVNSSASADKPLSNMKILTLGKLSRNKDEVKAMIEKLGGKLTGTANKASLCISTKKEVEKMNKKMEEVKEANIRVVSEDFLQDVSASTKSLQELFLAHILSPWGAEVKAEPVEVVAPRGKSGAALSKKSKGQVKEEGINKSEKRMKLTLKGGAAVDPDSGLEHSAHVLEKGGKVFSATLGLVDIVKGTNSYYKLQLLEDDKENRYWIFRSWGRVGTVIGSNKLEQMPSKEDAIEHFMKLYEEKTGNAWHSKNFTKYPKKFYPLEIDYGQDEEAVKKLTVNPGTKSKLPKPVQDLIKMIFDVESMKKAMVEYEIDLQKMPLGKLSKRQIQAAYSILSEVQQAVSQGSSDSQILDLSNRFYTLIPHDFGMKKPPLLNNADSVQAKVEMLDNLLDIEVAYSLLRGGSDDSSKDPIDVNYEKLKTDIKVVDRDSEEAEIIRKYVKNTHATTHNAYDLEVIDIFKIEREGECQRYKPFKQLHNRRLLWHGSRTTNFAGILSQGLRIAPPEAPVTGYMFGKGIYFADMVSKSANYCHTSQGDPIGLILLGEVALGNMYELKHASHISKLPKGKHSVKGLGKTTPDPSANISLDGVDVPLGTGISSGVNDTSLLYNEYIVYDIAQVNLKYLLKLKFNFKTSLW

PARP3 = target: T2, PARP3 (UniProt Q9Y6F1 1-533); assay: EMSA; 10 nM DNA, up to 10-fold PARP3 excess; EMSA: 50 mM Tris-HCl pH 8.0, 20 mM NaCl, 0.25 mM EDTA, 5% glycerol, 0.025% NP-40, 37 °C 20 min; 8% PAAG, 0.5x TBE, 10 °C; details: protein: recombinant; label: 5'-32P on O1-Pho strand; 5' overhang 5 nt on strand 1 as printed; other end blunt
T2 sequence: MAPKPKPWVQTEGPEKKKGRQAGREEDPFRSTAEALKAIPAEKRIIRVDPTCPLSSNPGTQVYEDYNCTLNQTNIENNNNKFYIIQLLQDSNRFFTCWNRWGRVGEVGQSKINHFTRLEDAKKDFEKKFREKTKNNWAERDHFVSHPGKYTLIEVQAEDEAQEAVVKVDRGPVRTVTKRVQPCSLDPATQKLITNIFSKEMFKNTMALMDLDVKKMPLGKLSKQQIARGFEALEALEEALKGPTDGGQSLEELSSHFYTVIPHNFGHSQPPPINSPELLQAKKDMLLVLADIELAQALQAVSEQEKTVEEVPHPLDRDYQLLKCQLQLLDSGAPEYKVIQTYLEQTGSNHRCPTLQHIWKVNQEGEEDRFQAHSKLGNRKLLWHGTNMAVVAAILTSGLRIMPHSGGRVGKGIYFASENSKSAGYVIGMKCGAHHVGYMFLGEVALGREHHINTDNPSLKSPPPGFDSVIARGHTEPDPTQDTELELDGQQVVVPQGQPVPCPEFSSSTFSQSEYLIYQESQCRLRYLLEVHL

Ku antigen (Ku70/Ku80) = Ku antigen (Ku70/Ku80) (UniProt P12956;P13010 1-609;1-732); assay: photo-cross-linking; 100 nM DNA, 100 nM protein; Ku70 and Ku80 labelled; EMSA: 50 mM Tris-HCl pH 8.0, 20 mM NaCl, 0.25 mM EDTA, 5% glycerol, 0.025% NP-40, 37 °C 20 min; 8% PAAG, 0.5x TBE, 10 °C; details: copies: 1;1; nicked duplex, blunt ends, strands 1 and 2 paired to strand 3
Chain of Ku antigen (Ku70/Ku80) (P12956 whole entry, chain 1 of 2): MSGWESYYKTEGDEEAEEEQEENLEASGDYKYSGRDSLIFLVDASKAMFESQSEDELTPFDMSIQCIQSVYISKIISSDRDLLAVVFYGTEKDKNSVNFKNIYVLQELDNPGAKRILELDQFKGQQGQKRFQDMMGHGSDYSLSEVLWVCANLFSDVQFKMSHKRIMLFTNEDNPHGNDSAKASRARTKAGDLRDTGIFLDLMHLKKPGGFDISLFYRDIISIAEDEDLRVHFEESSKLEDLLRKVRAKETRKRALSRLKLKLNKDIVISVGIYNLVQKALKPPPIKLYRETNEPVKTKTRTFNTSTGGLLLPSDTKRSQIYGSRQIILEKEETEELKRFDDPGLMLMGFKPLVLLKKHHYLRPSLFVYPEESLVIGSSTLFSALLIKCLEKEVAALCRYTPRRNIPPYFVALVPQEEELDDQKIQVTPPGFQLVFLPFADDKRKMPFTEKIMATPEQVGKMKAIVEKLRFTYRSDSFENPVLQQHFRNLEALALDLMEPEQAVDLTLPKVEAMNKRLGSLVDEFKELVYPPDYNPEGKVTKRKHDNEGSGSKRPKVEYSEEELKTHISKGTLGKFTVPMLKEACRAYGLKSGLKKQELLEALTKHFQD
Chain of Ku antigen (Ku70/Ku80) (P13010 whole entry, chain 2 of 2): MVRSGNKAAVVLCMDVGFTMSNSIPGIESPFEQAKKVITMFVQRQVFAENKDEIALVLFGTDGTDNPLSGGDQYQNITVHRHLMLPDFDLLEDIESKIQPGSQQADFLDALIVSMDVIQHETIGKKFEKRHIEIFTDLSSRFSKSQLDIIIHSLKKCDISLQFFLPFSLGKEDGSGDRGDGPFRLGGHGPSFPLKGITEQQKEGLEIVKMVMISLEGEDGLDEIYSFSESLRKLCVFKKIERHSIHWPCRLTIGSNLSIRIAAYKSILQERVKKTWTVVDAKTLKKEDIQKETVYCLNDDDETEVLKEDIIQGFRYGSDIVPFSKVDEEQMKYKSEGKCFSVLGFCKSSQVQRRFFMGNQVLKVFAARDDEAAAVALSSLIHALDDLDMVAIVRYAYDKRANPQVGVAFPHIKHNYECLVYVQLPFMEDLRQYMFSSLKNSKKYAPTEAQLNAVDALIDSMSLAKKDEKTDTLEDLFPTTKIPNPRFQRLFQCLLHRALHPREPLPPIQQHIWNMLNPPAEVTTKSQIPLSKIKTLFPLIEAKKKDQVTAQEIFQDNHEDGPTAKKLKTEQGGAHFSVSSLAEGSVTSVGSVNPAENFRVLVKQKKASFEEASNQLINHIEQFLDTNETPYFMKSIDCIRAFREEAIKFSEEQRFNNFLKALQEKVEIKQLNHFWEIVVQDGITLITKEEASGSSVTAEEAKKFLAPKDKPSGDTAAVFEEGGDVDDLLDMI

PARP1 [2] = target: T1, PARP1; assay: photo-cross-linking; 100 nM DNA, 100 nM protein; EMSA: 50 mM Tris-HCl pH 8.0, 20 mM NaCl, 0.25 mM EDTA, 5% glycerol, 0.025% NP-40, 37 °C 20 min; 8% PAAG, 0.5x TBE, 10 °C; details: protein: recombinant; nicked duplex, blunt ends, strands 1 and 2 paired to strand 3

Chain of PARP2 (Q9UGN5 whole entry): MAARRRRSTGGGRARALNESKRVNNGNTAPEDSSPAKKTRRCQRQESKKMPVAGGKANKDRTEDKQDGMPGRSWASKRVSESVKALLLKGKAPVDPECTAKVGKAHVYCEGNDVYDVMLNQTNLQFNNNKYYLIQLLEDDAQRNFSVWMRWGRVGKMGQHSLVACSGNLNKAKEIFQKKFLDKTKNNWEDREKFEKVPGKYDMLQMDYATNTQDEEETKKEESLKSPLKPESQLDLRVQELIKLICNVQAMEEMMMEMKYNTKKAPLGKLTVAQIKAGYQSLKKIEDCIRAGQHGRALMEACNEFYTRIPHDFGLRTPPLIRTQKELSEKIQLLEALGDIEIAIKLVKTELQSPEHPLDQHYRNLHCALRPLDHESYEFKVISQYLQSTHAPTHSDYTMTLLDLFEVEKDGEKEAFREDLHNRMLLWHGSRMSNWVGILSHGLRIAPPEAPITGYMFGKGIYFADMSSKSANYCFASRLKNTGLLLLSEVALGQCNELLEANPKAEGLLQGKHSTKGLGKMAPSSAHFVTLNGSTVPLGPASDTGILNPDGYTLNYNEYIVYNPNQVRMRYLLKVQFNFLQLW

B1: Pho-DNA-R (dsDNA)
DNA 1: TCCTGACATACTTGATACTTAGACATTCTT
DNA 2: AAGAATGTCTAAGTATCAAGTATGTC
modifications: 3'-terminal FAP-dCMP (photoactivatable C) on strand 2
**Q.** Which results are given for B1?
**A.** binding result (PARP2): binds; binding result (PARP1 [1]): binds

B2: DNA-R (EMSA, O-R/O1-Pho) (dsDNA)
DNA 1: B1 DNA 1
DNA 2: AAGAATGTCTAAGTATCAAGTATGT
**Q.** Does B2 bind (PARP3)?
**A.** Result: no binding

B3: Pho-dRP (dsDNA)
DNA 1: GGCGACTAAGCCGGGC
DNA 2: AACGCCAGGGCCTCCC
DNA 3: GGGAGGCCCTGGCGTTGCCCGGCTTAGTCGCC
modifications: 3'-terminal FAP-dCMP on strand 1; 5'-dRP on strand 2
**Q.** Does B3 bind (Ku antigen (Ku70/Ku80))?
**A.** Result: binds

**Q.** Does B3 bind (PARP1 [2])?
**A.** Result: binds

— publication PMC12346409, “Amphiphilic Oligonucleotide Derivatives as a Tool to Study DNA Repair Proteins”
